What all share (experiment): cell-based or functional assay
The target in one assay is T1, CCR5 H175A, HA-tagged (human, UniProt P51681 1-352).
T1 sequence: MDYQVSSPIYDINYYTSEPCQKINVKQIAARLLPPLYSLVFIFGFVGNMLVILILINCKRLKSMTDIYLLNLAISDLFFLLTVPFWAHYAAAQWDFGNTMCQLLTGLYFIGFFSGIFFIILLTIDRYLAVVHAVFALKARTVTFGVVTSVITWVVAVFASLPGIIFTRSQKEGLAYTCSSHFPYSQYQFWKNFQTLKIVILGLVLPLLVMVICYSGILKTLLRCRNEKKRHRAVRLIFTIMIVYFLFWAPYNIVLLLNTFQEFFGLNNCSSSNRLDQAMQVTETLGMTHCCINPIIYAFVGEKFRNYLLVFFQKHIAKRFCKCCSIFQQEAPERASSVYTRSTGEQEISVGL

A further assay has as its target T2, CCR5 D2A, HA-tagged (human, UniProt P51681 1-352).
T2 sequence (looked up): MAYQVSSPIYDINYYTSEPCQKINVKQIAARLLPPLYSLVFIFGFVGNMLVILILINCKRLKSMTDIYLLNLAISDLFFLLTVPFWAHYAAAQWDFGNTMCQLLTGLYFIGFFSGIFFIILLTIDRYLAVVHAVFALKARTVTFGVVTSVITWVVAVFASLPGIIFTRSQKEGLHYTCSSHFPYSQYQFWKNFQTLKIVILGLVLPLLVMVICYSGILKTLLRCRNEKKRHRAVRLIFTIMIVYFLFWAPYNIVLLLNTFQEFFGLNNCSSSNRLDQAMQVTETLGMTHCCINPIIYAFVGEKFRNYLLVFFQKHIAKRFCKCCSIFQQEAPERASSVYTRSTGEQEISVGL

For another assay, the target named is T3, CCR5 E18A, HA-tagged (human, UniProt P51681 1-352).
T3 sequence (looked up): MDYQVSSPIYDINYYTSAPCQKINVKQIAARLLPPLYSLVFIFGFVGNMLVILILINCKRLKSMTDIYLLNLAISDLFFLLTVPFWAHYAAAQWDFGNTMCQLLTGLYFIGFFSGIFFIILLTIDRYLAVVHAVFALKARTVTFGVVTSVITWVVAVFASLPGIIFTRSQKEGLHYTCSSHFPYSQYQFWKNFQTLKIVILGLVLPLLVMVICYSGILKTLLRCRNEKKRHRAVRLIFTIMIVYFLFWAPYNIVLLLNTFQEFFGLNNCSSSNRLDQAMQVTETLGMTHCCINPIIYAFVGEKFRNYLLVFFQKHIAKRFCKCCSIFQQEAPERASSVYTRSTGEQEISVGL

A further assay concerns the target T4, CCR5 Q188A, HA-tagged (human, UniProt P51681 1-352).
T4 sequence: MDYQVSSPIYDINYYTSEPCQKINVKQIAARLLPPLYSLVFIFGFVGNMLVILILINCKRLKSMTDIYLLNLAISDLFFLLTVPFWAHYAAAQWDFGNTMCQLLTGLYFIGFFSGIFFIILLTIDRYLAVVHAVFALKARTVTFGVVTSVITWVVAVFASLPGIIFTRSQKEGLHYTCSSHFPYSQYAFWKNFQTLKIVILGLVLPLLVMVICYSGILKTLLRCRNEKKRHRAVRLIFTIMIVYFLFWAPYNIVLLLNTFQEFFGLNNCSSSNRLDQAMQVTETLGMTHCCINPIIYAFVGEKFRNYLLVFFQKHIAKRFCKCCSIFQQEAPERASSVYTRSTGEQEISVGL

Another assay has as its target T5, CCR5 N13A, HA-tagged (human, UniProt P51681 1-352).
T5 sequence: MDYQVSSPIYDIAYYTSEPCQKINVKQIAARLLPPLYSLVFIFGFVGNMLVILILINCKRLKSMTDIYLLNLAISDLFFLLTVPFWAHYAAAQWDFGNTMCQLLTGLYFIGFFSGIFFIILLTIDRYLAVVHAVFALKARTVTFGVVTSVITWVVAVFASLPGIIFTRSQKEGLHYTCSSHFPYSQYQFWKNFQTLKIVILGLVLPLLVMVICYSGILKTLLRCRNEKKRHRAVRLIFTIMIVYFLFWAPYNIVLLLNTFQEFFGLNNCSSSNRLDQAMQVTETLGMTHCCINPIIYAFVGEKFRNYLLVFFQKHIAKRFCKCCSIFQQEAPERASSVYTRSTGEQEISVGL

Assay [1] addresses T6, CCR5 R274A/D276A, HA-tagged (human, UniProt P51681 1-352).
T6 sequence: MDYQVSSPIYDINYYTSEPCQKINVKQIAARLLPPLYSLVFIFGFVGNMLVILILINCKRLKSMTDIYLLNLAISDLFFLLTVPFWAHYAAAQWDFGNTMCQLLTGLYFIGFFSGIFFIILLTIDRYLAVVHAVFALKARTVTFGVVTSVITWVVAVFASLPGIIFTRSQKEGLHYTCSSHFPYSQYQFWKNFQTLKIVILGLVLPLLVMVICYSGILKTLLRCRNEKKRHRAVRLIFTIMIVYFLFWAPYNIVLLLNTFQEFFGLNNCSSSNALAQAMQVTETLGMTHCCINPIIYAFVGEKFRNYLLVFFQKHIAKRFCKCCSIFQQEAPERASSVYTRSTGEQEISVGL

Assay [2] concerns the target T7, CCR5 K191A/N192A, HA-tagged (human, UniProt P51681 1-352).
T7 sequence: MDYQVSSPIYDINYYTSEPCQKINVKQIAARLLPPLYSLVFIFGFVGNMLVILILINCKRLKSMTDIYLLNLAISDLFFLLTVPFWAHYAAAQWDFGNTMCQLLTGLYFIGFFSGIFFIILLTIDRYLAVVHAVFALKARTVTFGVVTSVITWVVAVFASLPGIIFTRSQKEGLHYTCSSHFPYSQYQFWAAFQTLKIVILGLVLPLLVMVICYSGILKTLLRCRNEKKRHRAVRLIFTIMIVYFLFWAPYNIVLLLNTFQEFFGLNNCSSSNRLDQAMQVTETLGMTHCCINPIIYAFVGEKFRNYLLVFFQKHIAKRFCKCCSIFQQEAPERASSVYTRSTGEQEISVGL

B1: RANTES, recombinant human (ligand)
chain: SPYSSDTTPCCFAYIARPLPRAHIKEYFYTSGKCSNPAVVFVTRKNRQVCANPEKKWVREYINSLEMS
B1: the “relative % inhibition of NLluc/JR-FL entry into U87MG-CD4 cells by 2 µg/ml chemokine (wild-type = 100)” value (shortened to “relative % inhibition”) with CCR5 H175A, HA-tagged was 95%; with CCR5 D2A, HA-tagged, 85%; with CCR5 E18A, HA-tagged, 62%; with CCR5 Q188A, HA-tagged, 51%; in the assay with CCR5 N13A, HA-tagged, 92%; in assay [1] it was 33%. For the same molecule, the “relative % inhibition” value in assay [2] was determined as 18%.

B2: macrophage inflammatory protein (MIP)-1β, recombinant human (ligand, UniProt P13236 24-92, looked up)
chain: APMGSDPPTACCFSYTARKLPRNFVVDYYETSSLCSQPAVVFQTKRSKQVCADPSESWVQEYVYDLELN
In the case of B2, the “relative % inhibition” value with CCR5 H175A, HA-tagged is 100%; with CCR5 D2A, HA-tagged, 97%; in the assay with CCR5 E18A, HA-tagged it was 100%; with CCR5 Q188A, HA-tagged it was 75%; in the assay with CCR5 N13A, HA-tagged, 93%; in assay [1] it was 36%. In addition, the “relative % inhibition” value in assay [2] turned out to be 15%.
